Results on six molecules are retold here after patent US20260035692, “METHOD FOR SCREENING FOR APTAMER BY SEQUENCING” (GeneMind Biosciences Co., Ltd., published 2026).

Common to all, as to conditions: tags: Alexa Fluor 647 label (SA-alexa647); chain copies: 4
Data set [1] has as its target T1, streptavidin (SA) (UniProt P22629 P22629:25-183). The data set can be described thus: flowcell clusters in mixture library; signal graded with 1.95-500 nM SA-alexa647, weak below 31 nM. The protocol: (3) Into the four flow channels of the sequencing flowcell (L1, L2, L3, and L4 respectively), SA-alexa647 at concentrations of 500 nmol/L, 125 nmol/L, 31.25 nmol/L, and 1.95 nmol/L was introduced, respectively, and the flowcell was incubated for 30 minutes for in situ hybridization. After incubation, 300 μL of PBST was used to wash the channels to remove unreacted fluorescently labeled SA-alexa647.

In data set [2] the target is T1, streptavidin (SA). Description: NY selection: no signal with 500 nM SA alone. The protocol: (3) After sequencing was completed, target protein SA at a concentration of 500 nmol/L and a combination of target proteins SA and 3RA at 500 nmol/L each were sequentially introduced into the flowcell, followed by incubation. After each incubation was completed, 300 μL of PBST was used to wash the channels. After washing was completed, a 640 nm laser was used for excitation, and the surface of the solid carrier was imaged to collect the corresponding emission signals. Before introducing the next target at each time, the channels were washed with 750 μL of NaOH to remove the previously bound target.

The target of data set [3] is T1, streptavidin (SA). The data set can be described thus: 0 of 2808 (30% mix) and 2 of 575 (10% mix) target-bound clusters were reverse strand.

T1 sequence (P22629 25-183, one chain of several): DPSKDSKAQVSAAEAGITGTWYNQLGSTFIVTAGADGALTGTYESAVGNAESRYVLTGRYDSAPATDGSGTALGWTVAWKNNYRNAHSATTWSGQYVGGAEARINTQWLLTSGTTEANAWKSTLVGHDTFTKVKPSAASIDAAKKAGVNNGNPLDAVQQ

B1: tagged SA-positive aptamer (GGCTAC tag) (ssDNA)
DNA: GGCTACAGCAGCACAGAGGTCAGATGGACGCACCGATCGCAGGTTCCGAAATGACTACTTGGTTGCCTATGCGTGCTACCGTGAAGGCTAC
Consider B1, for which, in the data set with streptavidin (SA) [1], the binding result was “binds”.

B2: 3RA positive aptamer sequence 2 (ssDNA)
DNA: CGAAGTTCAGCACTCCACGCATAGCCCTCGGAGGTCTACGAGAATGCCTACAGCCCTGTGCCCTATGCGTGCTACCGTGAA
Regarding B2, the binding result with streptavidin (SA) [2] is “no binding”.

B3: SA-positive aptamer reverse strand (ssDNA)
DNA: TTCACGGTAGCACGCATAGGCAACCAAGTAGTCATTTCGGAACCTGCGATCGGTGCGTCCATCTGACCTCTGTGCTGCT
modifications: [NONE]
B3: the binding result in the data set with streptavidin (SA) [3] is “no binding”.

B4: 3RA positive aptamer sequence 3 (ssDNA)
DNA: CACGGTAGCACGCATAACGCCGAGTTCCATTATAAAGTCCGCGCCCGACTACCCCCGTTATGCGTGGAGTGCTGGACATGC
In the case of B4, the binding result in the data set with streptavidin (SA) [2] is given as “no binding”.

B5: 3RA positive aptamer sequence 4 (ssDNA)
DNA: AATGGTCCAGCACTCCACGCATAACGAATAGGTCCTAAACGAGGGGTCAGGGAAGTCGCCGGTTATGCGTGCTACCGTGAA
For B5, the binding result in the data set with streptavidin (SA) [2] is reported as “no binding”.

B6: 3RA positive aptamer sequence 1 (ssDNA)
DNA: TCACGGTAGCACGCATAGGGGAGGATTCCGACTAAGTTTCCGTCGCATGAGCGTTGCTATGCGTGGAGTGCTGAAGTTGGC
For B6, the binding result in the data set with streptavidin (SA) [2] is reported as “no binding”.
